According to paper PMC7042329, “AMPK-dependent activation of the Cyclin Y/CDK16 complex controls autophagy” (Nature Communications, 2020):

Target: T1, Cyclin Y-Flag (human, UniProt Q8ND76-1 1-341)
T1 construct: Cyclin Y, human, isoform 1 (CCNYiso1 cDNA clone in pcDNA3-FLAG); In cells partly phosphorylated at S326 (more after AICAR/A769662) and at S336; also called Cyclin Y-Flag-wt; wild-type Cyclin Y; source: HeLa or U2OS, transfected, in lysate
Experiment: co-IP; HeLa cells transfected with Cyclin Y-Flag, with or without GFP-tagged CDK; with or without 0.5 mM AICAR/50 µM A769662 for 1 h; lysate in Frackelton buffer, anti-FLAG M2 beads 2 h at 4 °C, three washes, immunoblot
Conditions: partners not purified

T1 sequence (Q8ND76 whole entry, canonical isoform): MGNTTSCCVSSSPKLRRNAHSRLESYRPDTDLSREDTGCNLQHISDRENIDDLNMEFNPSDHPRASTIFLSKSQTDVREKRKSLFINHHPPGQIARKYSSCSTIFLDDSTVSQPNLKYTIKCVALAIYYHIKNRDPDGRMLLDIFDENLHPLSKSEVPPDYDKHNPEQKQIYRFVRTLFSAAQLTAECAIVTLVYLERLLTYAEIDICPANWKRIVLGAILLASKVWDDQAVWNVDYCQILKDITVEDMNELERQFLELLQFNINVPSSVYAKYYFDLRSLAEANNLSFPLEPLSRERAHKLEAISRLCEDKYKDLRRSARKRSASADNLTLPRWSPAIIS

- fold change of co-immunoprecipitated CDK16 with AICAR/A769662 against untreated: 2 fold
B1: GFP-CDK16 (enzyme)
chain: not shown
notes: Cyclin-dependent kinase 16 (CDK16), human, isoform 1; also called GFP-CDK16-wt; PCTAIRE1; source: HeLa, transfected, in lysate
